Measured values: paper PMC3657141, “Directed evolution to re-adapt a co-evolved network within an enzyme” (Journal of Biotechnology, 2012)

Substrate: CCC=O
Assay: purified protein
Format: biochemical, Escherichia coli
Conditions: 50 mM LiHPA, 2.4 mM TPP, 9 mM MgCl2, 250 mM NaCl, 50 mM Tris-HCl, pH 7.0, 21 °C

B1: transketolase (TK) (Escherichia coli K-12; D469S) (protein)
chain: MSSRKELANAIRALSMDAVQKAKSGHPGAPMGMADIAEVLWRDFLKHNPQNPSWADRDRFVLSNGHGSMLIYSLLHLTGYDLPMEELKNFRQLHSKTPGHPEVGYTAGVETTTGPLGQGIANAVGMAIAEKTLAAQFNRPGHDIVDHYTYAFMGDGCMMEGISHEVCSLAGTLKLGKLIAFYDDNGISIDGHVEGWFTDDTAMRFEAYGWHVIRDIDGHDAASIKRAVEEARAVTDKPSLLMCKTIIGFGSPNKAGTHDSHGAPLGDAEIALTREQLGWKYAPFEIPSEIYAQWDAKEAGQAKESAWNEKFAAYAKAYPQEAAEFTRRMKGEMPSDFDAKAKEFIAKLQANPAKIASRKASQNAIEAFGPLLPEFLGGSADLAPSNLTLWSGSKAINEDAAGNYIHYGVREFGMTAIANGISLHGGFLPYTSTFLMFVEYARNAVRMAALMKQRQVMVYTHDSIGLGESGPTHQPVEQVASLRVTPNMSTWRPCDQVESAVAWKYGVERQDGPTALILSRQNLAQQERTEEQLANIARGGYVLKDCAGQPELIFIATGSEVELAVAAYEKLTAEGVKARVVSMPSTDAFDKQDAAYRESVLPKAVTARVAVEAGIADYWYKYVGLNGAIVGMTTFGESAPAELLFEEFGFTVDNVVAKAKELL
notes: 680 residues; homodimer
Protein B1 has a Km of 70.8 mM, a kcat of 0.952 ± 0.0567 s⁻¹ and a kcat/Km of 13.5 ± 0.333 M⁻¹ s⁻¹.
